Consider 39 molecules from paper PMC10681739, “High-throughput data and modeling reveal insights into the mechanisms of cooperative DNA-binding by transcription factor proteins”.

This data set concerns the target T1, ETS1 (Homo sapiens, UniProt P14921).
T1 sequence: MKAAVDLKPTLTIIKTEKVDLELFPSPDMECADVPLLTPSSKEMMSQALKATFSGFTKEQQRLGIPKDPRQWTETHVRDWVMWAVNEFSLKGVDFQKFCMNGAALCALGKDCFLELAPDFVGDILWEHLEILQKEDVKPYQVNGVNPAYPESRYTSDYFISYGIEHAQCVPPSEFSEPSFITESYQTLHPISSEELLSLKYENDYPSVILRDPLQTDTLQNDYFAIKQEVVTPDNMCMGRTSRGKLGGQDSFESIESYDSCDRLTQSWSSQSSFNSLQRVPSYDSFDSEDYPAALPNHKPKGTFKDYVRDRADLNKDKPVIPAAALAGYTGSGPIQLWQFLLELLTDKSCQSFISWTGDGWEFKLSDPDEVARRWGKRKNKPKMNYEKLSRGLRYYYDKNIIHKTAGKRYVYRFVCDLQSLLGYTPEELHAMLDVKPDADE
As to the kind of experiment: gcPBM; 1 nM ETS1. The settings on record: tags: N-terminal GST (pDEST15), kept (PMC6008103); label: surface-attached array probe.

B1: Table S2 B row 1635 (dsDNA)
DNA 1: GGACAGGAAGTTCCTGCAGCTTCTACCCCAAACCTA
DNA 2: TAGGTTTGGGGTAGAAGCTGCAGGAACTTCCTGTCC
In the case of B1, the binding signal was 9480 PBM fluorescence, median of replicate spots.

B2: Table S2 B row 1811 (dsDNA)
DNA 1: GGTTTCGCTTCCGGGTTAGGCGGCCGGAGAAGCGTA
DNA 2: TACGCTTCTCCGGCCGCCTAACCCGGAAGCGAAACC
B2: the binding signal is 11000 PBM fluorescence, median of replicate spots.

B3: Table S2 C row 197 (dsDNA)
DNA 1: TTGAACTTAGTAGCAACCACACATGGCCATTATTTG
DNA 2: CAAATAATGGCCATGTGTGGTTGCTACTAAGTTCAA
Regarding B3, the binding signal is 416 PBM fluorescence, median of replicate spots.

B4: Table S2 C row 82 (dsDNA)
DNA 1: ATTCTAAAATTGGACTGTGGTAAGGGTTGCACAACT
DNA 2: AGTTGTGCAACCCTTACCACAGTCCAATTTTAGAAT
Take B4: the binding signal is 420 PBM fluorescence, median of replicate spots.

B5: Table S2 C row 99 (dsDNA)
DNA 1: ACAAGCATTTGATTCTGTGGGTCCCCAATGTTGGAA
DNA 2: TTCCAACATTGGGGACCCACAGAATCAAATGCTTGT
With B5, the binding signal was 431 PBM fluorescence, median of replicate spots.

B6: Table S2 C row 3 (dsDNA)
DNA 1: GCGAGAGCAGCAAGAACCACACCCAGCAGCAATGTC
DNA 2: GACATTGCTGCTGGGTGTGGTTCTTGCTGCTCTCGC
For the molecule B6, the binding signal was 422 PBM fluorescence, median of replicate spots.

B7: Table S2 C row 81 (dsDNA)
DNA 1: AGCCTGACTCTGTGCTGTGGTTGTGAGGCTGGAATG
DNA 2: CATTCCAGCCTCACAACCACAGCACAGAGTCAGGCT
As for B7, the binding signal was 440 PBM fluorescence, median of replicate spots.

B8: Table S2 C row 107 (dsDNA)
DNA 1: TGGCTGAGGGTCTTCTGTGGGTGGACGCATGATTAA
DNA 2: TTAATCATGCGTCCACCCACAGAAGACCCTCAGCCA
Turning to B8, the binding signal was 417 PBM fluorescence, median of replicate spots.

B9: Table S2 C row 168 (dsDNA)
DNA 1: AACAGATACTCAAAAACCGCTGGCTGAACACATGGA
DNA 2: TCCATGTGTTCAGCCAGCGGTTTTTGAGTATCTGTT
B9: the binding signal is 425 PBM fluorescence, median of replicate spots.

B10: Table S2 B row 1578 (dsDNA)
DNA 1: GGCTTCCTGCCCAACTACCAAGAAAAAGTCACAAAG
DNA 2: CTTTGTGACTTTTTCTTGGTAGTTGGGCAGGAAGCC
Turning to B10, the binding signal was 12500 PBM fluorescence, median of replicate spots.

B11: Table S2 C row 4 (dsDNA)
DNA 1: GAAAGAGCGAAATGTTGCGGTTTAGTTAATGCTTTG
DNA 2: CAAAGCATTAACTAAACCGCAACATTTCGCTCTTTC
Turning to B11, the binding signal was 442 PBM fluorescence, median of replicate spots.

B12: Table S2 C row 38 (dsDNA)
DNA 1: CAATTTAGCCTTTTAACCACTAAACTCCCTTGCCTA
DNA 2: TAGGCAAGGGAGTTTAGTGGTTAAAAGGCTAAATTG
On to B12, for which the binding signal was 426 PBM fluorescence, median of replicate spots.

B13: Table S2 C row 154 (dsDNA)
DNA 1: CCGTAATCTTCATAAACCTCAATGCTCAAGGTGCAG
DNA 2: CTGCACCTTGAGCATTGAGGTTTATGAAGATTACGG
Regarding B13, the binding signal was 438 PBM fluorescence, median of replicate spots.

B14: Table S2 C row 152 (dsDNA)
DNA 1: CTTTCATCTCTGACATGTGGCTTCTAAGGGTACACT
DNA 2: AGTGTACCCTTAGAAGCCACATGTCAGAGATGAAAG
In the case of B14, the binding signal was 421 PBM fluorescence, median of replicate spots.

B15: Table S2 C row 131 (dsDNA)
DNA 1: GAGGCATTATAGAAAACCGCAAGATTTTAGTCTGAG
DNA 2: CTCAGACTAAAATCTTGCGGTTTTCTATAATGCCTC
On to B15, for which the binding signal was 420 PBM fluorescence, median of replicate spots.

B16: Table S2 B row 123 (dsDNA)
DNA 1: ACAACCCGGAAGTTGGCGCAGCGCGCTTGCCAATGG
DNA 2: CCATTGGCAAGCGCGCTGCGCCAACTTCCGGGTTGT
As to B16, the binding signal was 12000 PBM fluorescence, median of replicate spots.

B17: Table S2 C row 27 (dsDNA)
DNA 1: AAAACAAGAACCAAAACCACAAGAACCACAAGAACC
DNA 2: GGTTCTTGTGGTTCTTGTGGTTTTGGTTCTTGTTTT
In the case of B17, the binding signal is 420 PBM fluorescence, median of replicate spots.

B18: Table S2 B row 4089 (dsDNA)
DNA 1: GCTGTTTCCTGCTGATAAAAACACCCCTCAACTTCA
DNA 2: TGAAGTTGAGGGGTGTTTTTATCAGCAGGAAACAGC
With B18, the binding signal was 11800 PBM fluorescence, median of replicate spots.

B19: Table S2 B row 1486 (dsDNA)
DNA 1: TCTGTCGTCCCACTTCCTGCTGCGGATTCCACCTCG
DNA 2: CGAGGTGGAATCCGCAGCAGGAAGTGGGACGACAGA
For the molecule B19, the binding signal is 12200 PBM fluorescence, median of replicate spots.

B20: Table S2 C row 176 (dsDNA)
DNA 1: ATATCCACTCAGTAGTGTGGTTTGTAAGGACTAAAT
DNA 2: ATTTAGTCCTTACAAACCACACTACTGAGTGGATAT
With B20, the binding signal is 440 PBM fluorescence, median of replicate spots.

B21: Table S2 C row 138 (dsDNA)
DNA 1: AGTAGTGCTTTTTCAACCACAGACCAACATTTGAGA
DNA 2: TCTCAAATGTTGGTCTGTGGTTGAAAAAGCACTACT
As to B21, the binding signal was 437 PBM fluorescence, median of replicate spots.

B22: Table S2 C row 13 (dsDNA)
DNA 1: AACTCACTAGTGTTTTGAGGTTTTAATTGACACCAC
DNA 2: GTGGTGTCAATTAAAACCTCAAAACACTAGTGAGTT
In the case of B22, the binding signal was 420 PBM fluorescence, median of replicate spots.

B23: Table S2 B row 2712 (dsDNA)
DNA 1: TGGGGCGAAATCCACTGACTTCCGGCTACGCCGTTG
DNA 2: CAACGGCGTAGCCGGAAGTCAGTGGATTTCGCCCCA
For the molecule B23, the binding signal is 10100 PBM fluorescence, median of replicate spots.

B24: Table S2 B row 741 (dsDNA)
DNA 1: CAACTTCCGGGGCCGGTTGCCTGGCAACAGCAGGAG
DNA 2: CTCCTGCTGTTGCCAGGCAACCGGCCCCGGAAGTTG
For the molecule B24, the binding signal was 35000 PBM fluorescence, median of replicate spots.

B25: Table S2 C row 119 (dsDNA)
DNA 1: GGAAAGGTTGACGATAGTGGTTAAGTGGCTCGGCCT
DNA 2: AGGCCGAGCCACTTAACCACTATCGTCAACCTTTCC
Turning to B25, the binding signal is 429 PBM fluorescence, median of replicate spots.

B26: Table S2 C row 22 (dsDNA)
DNA 1: CTTGTTCAAGCAATTTGAGGTTTTTTAGGGAGGTTG
DNA 2: CAACCTCCCTAAAAAACCTCAAATTGCTTGAACAAG
In the case of B26, the binding signal was 428 PBM fluorescence, median of replicate spots.

B27: Table S2 C row 64 (dsDNA)
DNA 1: GACAGAAAGCAAATTAGTGGTAGCCAAGGGCTAGGG
DNA 2: CCCTAGCCCTTGGCTACCACTAATTTGCTTTCTGTC
With B27, the binding signal is 439 PBM fluorescence, median of replicate spots.

B28: Table S2 C row 1 (dsDNA)
DNA 1: CCCTCATCTGAGAACACCACATTTCTCCCTCTGTCA
DNA 2: TGACAGAGGGAGAAATGTGGTGTTCTCAGATGAGGG
In the case of B28, the binding signal is 436 PBM fluorescence, median of replicate spots.

B29: Table S2 C row 84 (dsDNA)
DNA 1: ATCTATTATGAGCCTACCACCATGCTAGACAAGTTG
DNA 2: CAACTTGTCTAGCATGGTGGTAGGCTCATAATAGAT
As to B29, the binding signal was 434 PBM fluorescence, median of replicate spots.

B30: Table S2 B row 4091 (dsDNA)
DNA 1: GGCATTCACTTCCGGTCTGGGGCCTACGGCGGCGGC
DNA 2: GCCGCCGCCGTAGGCCCCAGACCGGAAGTGAATGCC
B30: the binding signal was 37100 PBM fluorescence, median of replicate spots.

B31: Table S2 C row 153 (dsDNA)
DNA 1: GTAACAACACCAAGGACCACAAATGTGTATGTTGAA
DNA 2: TTCAACATACACATTTGTGGTCCTTGGTGTTGTTAC
With B31, the binding signal was 421 PBM fluorescence, median of replicate spots.

B32: Table S2 C row 170 (dsDNA)
DNA 1: TCCTGAACTATTCACTGTGGTGATGAAATATGCTAA
DNA 2: TTAGCATATTTCATCACCACAGTGAATAGTTCAGGA
Turning to B32, the binding signal was 432 PBM fluorescence, median of replicate spots.

B33: Table S2 B row 185 (dsDNA)
DNA 1: GCCAGGAGGACTTCCGGGTGGGTGTGATATCTGCGA
DNA 2: TCGCAGATATCACACCCACCCGGAAGTCCTCCTGGC
Turning to B33, the binding signal is 11300 PBM fluorescence, median of replicate spots.

B34: Table S2 B row 2131 (dsDNA)
DNA 1: CTACTTTCCGGTCAACGCGGCCTGGGGTACCACCTC
DNA 2: GAGGTGGTACCCCAGGCCGCGTTGACCGGAAAGTAG
Turning to B34, the binding signal was 9890 PBM fluorescence, median of replicate spots.

B35: Table S2 C row 130 (dsDNA)
DNA 1: AATAATAGAGAAGACACCACAGTTGCCATGGTATTA
DNA 2: TAATACCATGGCAACTGTGGTGTCTTCTCTATTATT
On to B35, for which the binding signal was 414 PBM fluorescence, median of replicate spots.

B36: Table S2 B row 2731 (dsDNA)
DNA 1: AGAACCACTTCCTCTCAGTAAATCACAGAGACTGTA
DNA 2: TACAGTCTCTGTGATTTACTGAGAGGAAGTGGTTCT
B36: the binding signal was 10400 PBM fluorescence, median of replicate spots.

B37: Table S2 B row 3124 (dsDNA)
DNA 1: TCCACATCCTGCTCCTCGGGTTTACGGCGAGGACTC
DNA 2: GAGTCCTCGCCGTAAACCCGAGGAGCAGGATGTGGA
As for B37, the binding signal was 10800 PBM fluorescence, median of replicate spots.

B38: Table S2 C row 117 (dsDNA)
DNA 1: ACAGAGCCATTACCTACCACAGAGCTGACGTGAACA
DNA 2: TGTTCACGTCAGCTCTGTGGTAGGTAATGGCTCTGT
Regarding B38, the binding signal was 437 PBM fluorescence, median of replicate spots.

B39: Table S2 B row 3533 (dsDNA)
DNA 1: CCATTTCCCGCCTACCGACCTGCTGCACCTCACGGA
DNA 2: TCCGTGAGGTGCAGCAGGTCGGTAGGCGGGAAATGG
Turning to B39, the binding signal is 9790 PBM fluorescence, median of replicate spots.
